These are literature values, as cited in patent US20250320497A1, “COMPOSITIONS AND METHODS FOR TREATING HEPATITIS B VIRUS (HBV) INFECTION AND HBV-ASSOCIATED DISEASES” (priority 2022, published 2025).

The data set has as its system chronic HBV infection. The note with it: Phase 1, patients with chronic HBV infection.

B1: GC 1102: fully human anti-HBsAg mAb in development for chronic HBV infection (antibody, chains of the INN, looked up, V domains shown)
VH: EVQLVESGGGLVKPGGSLRLSCSASGFSLTKYKMTWVRQAPGKGLEWVSSISSTSRDIDYADSVKGRFTISRDNAKNSLFLQMSSLRVDDTAVYYCTRDGWLWGWDVRSNYYYNALDVWGQGTTVTVSS
VL: DIVVTQSPSSLSASVGDRVTITCRASQGIYNSIAWYQQKPGKAPKLLLYSTSTLLSGVPSRFSGSGSGTDYTLTITNLQPEDFATYYCQQYFVTPETFGQGTKLEIK
Regarding B1, the “lowering of HBsAg” value is reported as 2-3 log10 IU/mL and the tolerability entry is “well tolerated”.
